{"source": "paper PMC3795957", "about": "(Nature biotechnology, 2013)", "binders": {"B1": {"name": "humanized version of the 1i8i Fab (Parent) (Fab, V domains shown)", "VH": "EVQLVESGGGLVQPGGSLRLSCVTSGFTFRKFGMSWVRQAPGKGLEWVASISTGGYNTYYSDSVKGRFTISRDNSKNTLYLQMNSLRAEDTAVYYCTRGYSSTSYAMDYWGQGTLVTVSS", "VL": "DIVLTQSPATLSLSPGERATLSCMTSTDIDDDMNWYQQKPGQAPRLLISEGNTLRPGVPARFSGSGSGTDFTLTISSLEPEDFAVYYCLQSFNVPLTFGQGTKVEIK"}}, "target": "T1, wild-type (WT Asp) peptide GEKKGNYVVTDH (also: biotin (site not given here))", "T1 chain": "GEKKGNYVVTDH", "test": "SPR", "note": "Where no end group is shown, it is not given here.", "data": [{"binder": "B1", "values": [{"measurement": "kon", "value": 338000, "unit": "M⁻¹ s⁻¹"}]}]}
